Test system: TMt-NES-dCas9VP64

TEVC151A was tested. Which EYFP activation score did it give?
Its EYFP activation score is “did not show any activity above baseline levels”.

— patent US20200207829
